Assay results as given in EP4762086.
Several values for one entry are separate records, joined by “and”; a condition that tells them apart may be missing. Equal entries are not always repeated.

Biological target: MUC5AC antigen (human, UniProt P98088)
Assay: SPR

Kd: 7.38 nM and 5.6 nM
B1: NEO-102 (Ensituximab) (antibody, V domains shown)
VH: QVQLKESGPDLVAPSQSLSITCTVSGFELSKFGVIWVRQPPGKGLEWLGVIWGDGSTVYNSKLISRLSISKENSKSQVFLKLNSLQADDTATYYCVKPGGDYWGHGTSVTVSS
VL: QVVLTQSPVIMSASPGEKVTMTCSASSSISYMYWYQQKPGTSPKRWIYDTSKLGSGVPARFSGSGSGTSYSLTISNMEAGDAATYYCHQRDSYPWTFGGGTNLEIK
